Results on 18 sequences are retold here after the DeepSol protein solubility set.

This data set is described as follows: soluble on expression in E. coli; label from the status in PepcDB or PDB records.
As to “MENTVDAKKDSTIAFTGGRILTMDSEQKYAEAVVIRGDRIAAVGGTYILKSFPDAEIRDLKNRYLLPAFIDSHNHLSSFGCFFPTWANLIGLTEKEAILKAIRRQVRKEPGTGWIVGFGWFDARMGGADLTKKDLDEVSSDRPVLLIQTTFHQSVVNTRALGLLGINQSTPDPRCGIIFRESDGTPTGVLVEYAQAPVFKLVMEADTETLADLIEARAKELLQFGITAIHDPGATPAAEAAYRQLHAEGRLPVSVLMMPHGETLLDNRLRDRLQGQVTGTGDERLRVGPIKLFADGATAETVAFSLKIGGQTINSGCYRDDFEEMLFAATEKGFRVCVHSFGNATTDAVLTAFENAALRAPAGFEMRPRLEHVTLINALQIRRLASMGGCACIQPQFLSRAQNTKQVMLEDGKWYAYGDLVKGGVIVASSSDDPGGFMDARDPIKGSVMGSTMSDGEGNVIFPDQVLPFEQWLWMYTAGGAYAGGQEKERGILKKGMVADLVILEGSLDSKNPTVVAETWAAGKQVYTKELEHHHHHH”, the “soluble on expression in E. coli” value was “not soluble”.

Consider “KGKCVIFIIDGLGDRPNEKGLTPLKEAKTPTMDKIAKEGICGLMNAIDIGIRPGSDTAHLAILGYNPYEVYTGRGPLEAFGVGLDLKEGDIAFRCNFATVDENFVVLDRRAGRISPEEAEELEKEIDGLEIDGVKVIFKSSKGYRGALVLRGEGLSCRVSDGDPHEEGVKVSEIKPLDDSEEAKRTAEILNKLLKIVYEKLNNHPINEERRKKGLPPANIILPRGAGVVPKIEKFSEKYNMKGACICGTGLIKGMAKMIGLDVIEVEGATGTPKTNFMGKAKALVEALKEYDFVLVNVKGADEASHDGNYELKKEVLEKIDEMLAYVFEHINKDEVYFVLTGDHSTPIEMKDHSADPIPIVIWGKSVRVDDVTEFNEFACAKGALHWIKGEHVMKILLDLTG”, for which the “soluble on expression in E. coli” value is reported as “not soluble”.

As for “GPGSMKPLRIKKRESAGTPAEDEALTGLTSSASSVAAGSLAPRHVPSPPAVKGGRLPAHPGHDSGPSPAAATPAPTAKVSAAVKFSSELDNAAVEAYLEYLTHPHMSWESASRHVAHCREVIEEHRNSIYARSLAMLRRSSFASTIGSEGGDLDALETSTTSSVASAPAGFPRTAPNGSNKATGTLRKGRLGDAGSPLLPSDAAEPLAIVAHSSAAVSSSHSADSASCTSTGTGQRAPSNKGRLLRGPALAGPPRPHRTSSSATAPAAVGESVLGVGGAKLLGGSGSVFLVNGRSSAVTSRTASRDSTDRLPPVAPQGGGESLIHCKRTGGARAAVPSPQPKHRLK”, the “soluble on expression in E. coli” value is reported as “soluble”.

For “MSEKQSNEQVEAFLNKESQWQEEYKYLRALIFNETELEEAYKWMHPCYTLNNKNVVLIHGFKNYVALLFHKGAILEDKYHTLIQQTEKVQAARQLRFENLTEIQARTEEIKYYLAEAIKAEKAGKKVEMKKTEEYVIPKELEAKFEEMPQLESSFYKLTPGRQHQYIYHIGQAKRSETKQKRVEKYINQILEGKGMHDK”, the “soluble on expression in E. coli” value is “not soluble”.

On to “MATKHDQILKHIEDLPIGDRISVRSIAKSLSVSEGTAYRAIKDAENIGLVSTIQRVGTIRIERKLKKHIEKLTFGEVVRIIEGDVLGGSSGLDKVLNKFVIGAMTETAMTRYITPGSLMIVGNRQGVQKLALENGAAVLITGGFETSEEIAQLADRLGMPVLRTTYDTFTVATMINRALSDQLIKKDILLVSDIYTALEKTNYLLTTQTIADYQALSESTHHSRFPVVNKKLRLVGIVTAKDVIGKSEHLTVDKVMTKDPNVVKKMMSVASVSHQMIWDGLEVMPVVEDDLALVGIVSRQDVMKAMQLVQRQPQIADTISDQISGEVMPVEENGKETTRFRFSVAPQMVNSVGTISFGVLSEIISNVTQRTMLMNQKRNVLIEQVNLHYLRLIQLESELDIRPRILEIGRRSAKLDIEVYLENVIVAKAIVVCQVMERT”, for which the “soluble on expression in E. coli” value is recorded as “not soluble”.

In the case of “MGSDKIHHHHHHMLVFFKERLVLLSVPKTGTTAYQTALRARADIVVSDPPELKHAPIYRYDRFFRPIFEKMFGVEMEIMAVVREPVDWLGSWYRYRRRPFMQGKPNATHGLSFDDFVTAYMQGKRPGFANVGSQARFLTPRPNGCTVSHLFKYENQPGIRAFLQDRLQTEIAPPRENVSPDLPLDLSPEIAERLRRKCAEEFDLHASAT”, the “soluble on expression in E. coli” value was “not soluble”.

With “MSLSERTYFPPAEEGELSKVESFLAVYKDRHGTEARPQFFLSGSNEGEQIPLPKELYEILVRTVEALASGKAVTIHPNDPLVTTQQAAELLGVSRPTVVKLIEDGKLEATKVTRHRRIKLEDVLRYQERQTIEQLDFLASTTSDAPALTESEYVSVRKMLANKRKESRIG”, the “soluble on expression in E. coli” value was “not soluble”.

As to “MGSDKIHHHHHHMIVDNDLISIQEARILAENAGRAQRVLATFSQEQLDEIVEAVAEAVGAQAQALADMAYEETDYGNPHDKAVKNRFVCTQVREQLRGMRCVGVIGRDEHARTMDIGVPVGVIAALCPATSPVSTTICKTLIAVKSGNAVVFSPHPRAARSIAAALDIMIDAARAHGLPEGCLSYMSTVTKSGTAELMNHPATSLVMLSGVPGMIGLARCSGKPVIYGGTGNGPAFVERSADIRRAVADIMLSKTFDNGIAPSAEQSIVVDSCIEREVRHALQECGAYFMTDEESLRLAELLFCADGRHKAGMVGVSAPVLARRAGISVPDNVRLLVAERKYVSEADPYSRELLSPVLAYYVEDDWMHACEKCIELLLHERNAHTLVIHSSNEEVILQFALKKPVGRLLVNTPATFGGMGVTTNLFPSMTLGSGSAGRGITADNVSPMNLIYIRKVGYGVRQYTGAQDAAGYGSRVCAAQGVMAPHDSDSRKMQALHRILMEAIGVMDGAAHR”, the “soluble on expression in E. coli” value is “not soluble”.

For the sequence “MGSDKIHHHHHHMKAYLVGLYTLTPTHPGSGTELGVVDQPIQRERHTGFPVIWGQSLKGVLRSYLKLVEKVDEEKINKIFGPPTEKAHEQAGLISVGDAKILFFPVRSLKGVYAYVTSPLVLNRFKRDLELAGVKNFQTEIPELTDTAIASEEITVDNKVILEEFAILIQKDDKGILESVVKAIEQAFGNEMAEKIKGRIAIIPDDVFRDLVELSTEIVARIRINAETGTVETGGLWYEEYIPSDTLFYSLILVTPRAKDNDMALIKEVLGKINGKYLQIGGNETVGKGFVKVTLKEVTNNGGTHAK”, the “soluble on expression in E. coli” value is “not soluble”.

Turning to “MGSDKIHHHHHHAQNRNTSICRLGFTYDISQSKNWGNNKPVIKSIIPYSSAEQAGIKKYDVIEEINGVPVTEVSVDEIPQLLNPAGRNDVLLTISNLSSPSKQVLVKKDCKKSNAITEDQLASAYAMYSLETTNEQEFVCPFKTTVTSDGVDFGNFKTFAFSTIDENNRKLETVINECIENELTKKGLTVDIAKPDLLIQTFYFFDKNPNYLGANKVLVEKEPTYRYNFSHSKMEKFPFLNYAAAEAEAEYLLQFGIRIIDQKDIPGRVLWECEANELLEDSYRLDEYARVHVPLMCMQYPYTKYGRNVPFKVSKKTYNYTGISYDIDKLDQVVDVDRNSPAYAAGIRPRDIIEKIGRHKMDHSAEEFSSAYKRFITNTMQYRDPKTMFTDANGFKYCMFWDVFKYPQIADASQSSDYLPAFSYLYYFAPYINPSGNNACTFNIKRGKTKLEVIIRPTIRSEVTVEIK”, the “soluble on expression in E. coli” value is recorded as “not soluble”.

For the sequence “MGSDKIHHHHHHMTNLTSTHEVLAIGRLGVDIYPLQSGVGLADVQSFGKYLGGSAANVSVAAARHGHNSALLSRVGNDPFGEYLLAELERLGVDNQYVATDQTFKTPVTFCEIFPPDDFPLYFYREPKAPDLNIESADVSLDDVREADILWFTLTGFSEEPSRGTHREILTTRANRRHTIFDLDYRPMFWESPEEATKQAEWALQHSTVAVGNKEECEIAVGETEPERAGRALLERGVELAIVKQGPKGVMAMTKDETVEVPPFFVDVINGLGAGDAFGGALCHGLLSEWPLEKVLRFANTAGALVASRLECSTAMPTTDEVEASLNQKV”, the “soluble on expression in E. coli” value is “not soluble”.

As for “MPILQELRLGKRISRDISLADLYQEWIELKILPSSRSEETKKKYLLRKNTIERLFGNKKVTQIRASEYQRIMNKYGQTVGRNFLGRLNTGIHQSIQMAIADKVLIDDFTQHVELFSSKLEHHHHHH”, the “soluble on expression in E. coli” value is “soluble”.

As for “MAHHHHHHMGKFVAEQYLRRGVSVTVLARDIAKAKSLFLPIADGQREQNRLASMGYRQLSSAAEKREMTASLHYRDFRRGDRHVLRYEFRNPRSVGGPSAGSANASCDQRFALELVEGDVGSTQDLEFSMRHASIVFYLTAALEEASGPALRADDRLRSSAAWWSLGSWFCGGRRFGGFLHALDACRRVDAHFVALTPLWVHGSCLSPFYWYRRLLTHPRGYCKAVQLQEQTLLSQSGSPGARCSLGADELEARQPGGDWGCWWRSRLSTEPPDDILIKSRSPVRFSLFRLSDVVFPSFNERIVASKNNRVDDDLHVTFIQQGDLDARLLANVLVKSIGLCNSVVESRIDIGGSLRGGTDMRDANAIFDLFEQLRNE”, the “soluble on expression in E. coli” value is reported as “not soluble”.

As for “MGSDKIHHHHHHMTDLKTTFAGLSLRNPIIISSSGLTNSAGKNKRLAEAGAGAIVLKSLFEEQIMLEADQLKDPAFYPEASDYLEEYIREHKLAEYLTLIKESKKECSIPIIASINCYSDSEWVDFAKQIQEAGADALEINILALQSDVQYTYGSFEQRHIDILRHIKQTVTIPVIMKLGDNLTNPVALIDQLYANGAAAVVLFNRFYQPDINIENMEQVSGEVFSTSADLATPLRWIGIASSVVNKIDYAASGGVANPEAVVKAILAGASAVEVCSAIYQNTNAFIGESTRFLSAWMERKGFKNIAQFKGKLNIKDVQGINTFERTQFLKYFGKKEA”, the “soluble on expression in E. coli” value is “not soluble”.

Consider “MMKKKWYIVLTMSGYEEKVKENIEKKVEATGIKNLVGRIVIPEEVVLDATSPSERLILSPKAKLHVNNGKDVNKGDLIAEEPPIYARRSGVIVDVKNVRKIVVETIDRKYTKTYYIPESAGIEPGLRVGTKVKQGLPLSKNEEYICELDGKIVEIERMKKVVVQTPDGEQDVYYIPLDVFDRDRIKKGKEVKQGEMLAEARKFFAKVSGRVEVVDYSTRKEIRIYKTKRRKLFPGYVFVEMIMNDEAYNFVRSVPYVMGFVSSGGQPVPVKDREMRPILRLAGLEEYEEKKKPVKVELGFKVGDMVKIISGPFEDFAGVIKEIDPERQELKVNVTIFGRETPVVLHVSEVEKIE”, for which the “soluble on expression in E. coli” value is on record as “soluble”.

In the case of “MGSDKIHHHHHHMQQSQTIYLMGTVIDVFVDHEESEKILEEVHQRLITYEQRFSANDSTSELMAVNQQAGQKPVSVHPELYQLIALGKKHSCDPASHLNVTIGPLVQTWRIGFKDARVPSEEEIKACLKKINPEKIHLNPLKQTVFLEEEGMKLDLGALAKGYIADLLIAYLKEVHVTSALINLGGNIVTLGPSTHQNKKWRIGIRNPQESRETISLLVEVANQSVVTSGIYERSLTEAGRVYHHLLDPTTGYPLETEMASLTIISDASVDGEIWTTRLFGYPIPEALEILNQLDGIEGVIITQDQQILYSSGLADTLHIIHS”, the “soluble on expression in E. coli” value is “not soluble”.

For the sequence “MALWVDKYRPKDLLGKDGVDYHIEQANHLKFLSADCMPHLLFCGPSGAGKKTRIKCLLRELYGVGVEKTQLIMKSFTSPSNKKLEIQTVSSNYHIEMTPSDVGIYDRVVVQDLVKEMAQTSQIESTSQRSFKVVVLCEADSLTRDAQHGLRRTMEKYANNCKIVLSCESLSRIIEPLQSRCIIINVPAPTDEDVTKVLRKVIERESFLLPENVLQKIVEKSEGNLRRAILMTEALRMENESGVAESVVIPVPEWEIYIQETARLILQKQSSDMLLKVRERLYELLSRCIPPTVIFKKLLEHLLPKCPPQIAREVVSEAAKFEHRLVLGQKAIFHLEGFVAAFMDIYLTNASKPK”, the “soluble on expression in E. coli” value is on record as “not soluble”.

With “MKDVVDKCSTKGCAIDIGTVIDNDNCTSKFSRFFATREEAESFMTKLKELAAAASSADEGASVAYKIKDLEGQVELDAAFTFSCQAEMIIFELSLRSLALEHHHHHH”, the “soluble on expression in E. coli” value is “not soluble”.
